What was measured:
Test in all cases: pull-down binding Z-score (relative to library population); higher = stronger binding
TO-N3 (biotin conjugate) = details: RNA library: Library-2
Method in brief: (§1)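 Streptavidin beads bearing 100 pmol of a biotin-conjugated small molecule were incubated for 60 min at 25 °C with 1 μg of heat-folded, Cy5- or Cy3-end-labelled RNA library in phosphate/NaCl/KCl buffer. Hot SDS eluted the RNA that stayed bound after three washes, and this RNA was hybridised for 20 h at 55.5 °C to a DNA barcode microarray. Binding was expressed as a Z-score against the library mean and standard deviation, after subtraction of a beads-only signal and trimmed averaging of barcoded replicate probes.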

[1] = test system: G-clamp-N3 (biotin conjugate); details: RNA library: Library-1 (pre-miRNA loops + repeats)
Method in brief: as §1

[2] = test system: TO-3-N3-2 (biotin conjugate); details: RNA library: Library-2
Method in brief: as §1

[3] = test system: TO-3-N3 (biotin conjugate); details: RNA library: Library-2
Method in brief: as §1

[4] = test system: TO-N3-2 (biotin conjugate); details: RNA library: Library-2
Method in brief: as §1

Sequence	pull-down binding Z-score (TO-N3 (biotin conjugate))	pull-down binding Z-score [1]	pull-down binding Z-score [2]	pull-down binding Z-score [3]	pull-down binding Z-score [4]
AGGGACCCCCGGAGUCUGUCACGGUCUCA [hsa-mir-6784]	0.353	-0.402	0.215	-0.0169	0.955
ACCUAACACACUGCCUUUUAUGUGGUAGGU [hsa-mir-5094]	-1.02	-1.19	-0.66	-0.678	-1.14
GAUCCAGCCCAGGCUGGUUCCGCUGAC [hsa-mir-4522]	1.23	-0.211	0.351	1.15	1.51
CCCACCUCCAGCAUUGGG [hsa-mir-1267]	-0.663	-0.68	-0.393	-0.458	-0.466
CCCAAGCAGGCUUUGUGUGAGCAGUGAGGCUAUUUAUUCACUUGGGUGCGAGCUCACACGAAGCCUGCUUGGG [hsa-mir-6839]	0.551	1.44	0.815	0.33	0.665
UGUCUUGUAGCCAGGAUAUUGUUUUAAAGAA [hsa-mir-4668]	-0.338	-0.739	0.00983	-0.404	-0.355
GGUGUCGAACUCAUGGCUGCCACC [hsa-mir-6782]	-0.065	0.197	-0.167	-0.346	0.629
CAGUAUGAAUGAAUUCAUGAUACUG [hsa-mir-3607]	-0.881	0.669	-0.718	-0.768	-0.531
CAUGAGCCCUUUGGAAAGGUCUCGUG [hsa-mir-4711]	0.16	-0.633	-0.105	0.395	-0.478
UGAUCAUUAUAUGUAUGAUGAGAUCAU [hsa-mir-4528]	-0.54	1.33	-0.131	-0.532	-0.0235
UUUUUUUCGCUUUAUUUGUGACGAAAC [hsa-mir-543]	-0.856	-0.305	-0.278	-0.674	-0.882
UGGUUUCACUA [hsa-mir-3713]	0.378	-1.64	-0.427	0.624	-0.526
CUUGAUUUAAUGUCAUACAAUUAAG [hsa-mir-124-2]	-0.928	-0.895	-0.157	-0.687	-0.734
UUUGCCGUUGCUUUUAAUGGUAAA [hsa-mir-548as]	-0.571	-0.134	-0.381	-0.291	-1.31
ACACUUCCUAUAUGUAUCCACAUAUAUAUAGU [hsa-mir-568]	-0.69	0.00925	-0.0673	-0.562	-0.936
AUUUAUGUGAACUAAAAUAUAAAU [hsa-mir-513b]	1.03	-0.828	0.14	1.21	-0.599
GAUGAAGAUUAAUCCCUAAUCCCCAACA [hsa-mir-6757]	0.0739	-1.77	-0.0684	-0.283	0.739
UUUAGAUUUAAAUAGUGAUUGUCUAG [hsa-mir-29b-1]	0.194	0.526	-0.0424	0.267	-0.27
UGAGCAGGCCCAGAACCCAGCUCGUGCUCA [hsa-mir-6794]	0.56	0.169	-0.114	0.387	0.805
GGUGCAGUCAGUCCUAGCUC [hsa-mir-3135b]	0.224	-1.49	0.0356	-0.343	1.06
GAGUGAGGCCCAGUGGUCACCGCCGCCCUC [hsa-mir-4754]	1.11	-0.652	0.3	0.828	1.73
CUGGCUUCUCUGGUUCUCCAGCUUACAG [hsa-mir-1269b]	-0.0501	-1.06	-0.356	-0.401	0.333
UUUGCUACUGAAAGUAAUGGCAAA [hsa-mir-548z]	-0.792	0.365	-0.468	-0.614	-0.632
ACACACACCAGACUAUGGAAGCCAGUGU [hsa-mir-147a]	-0.528	-0.656	-0.471	-0.455	0.0135

Sequence	pull-down binding Z-score (TO-N3 (biotin conjugate))	pull-down binding Z-score [1]	pull-down binding Z-score [2]	pull-down binding Z-score [3]	pull-down binding Z-score [4]
CAUUUCCUUCAUGAUUAGGAAUACUACUUUGAAAUG [hsa-mir-4712]	-0.856	-0.338	-0.179	-0.641	-0.896
AGAAGACCU [hsa-mir-378g]	0.403	0.213	0.241	0.421	0.244
ACAGUGGACUUGGUGACGCUGU [hsa-mir-675]	-0.456	1.67	-0.252	-0.46	-0.259
CAAUCAUGUGUAAUUAGAUAUGAUUG [hsa-mir-514b]	-1.38	0.559	-0.732	-1.06	-1.33
CACUCCCGUGCUUGUCCGAGGAGGGAGG [hsa-mir-149]	2.63	1.29	0.731	1.78	2.78
CUGCUUUUAAAGGUAAUGGCAA [hsa-mir-548ag-1]	0.193	-0.0258	-0.0835	0.107	-0.0105
UGGAUUUGAAAUGGUCCCACUCCUGACGAUCCU [hsa-mir-6748]	-0.0778	-0.524	-0.155	-0.358	0.335
GUGGCUAAUCAGCUGAUGGUGCCAC [hsa-mir-4715]	-0.26	-0.109	-0.511	-0.0716	-0.545
UUUGUGUAAGGAAUUUUGUGGUCACAAA [hsa-mir-10a]	-1.25	1.29	-0.175	-1.06	-0.825
GCCAUCUGGUUGUGACAUCACUGAUGGC [hsa-mir-7155]	0.932	-0.231	0.0839	1.09	0.128
GCAGAGCAGGACGCCGCUGCUGC [hsa-mir-8072]	0.817	-0.0779	0.0817	0.701	1.65
CGUUCCAAUGCGACACCUCUAGAGUGUCAUCCCCUAGAAUGUCACCUUGGAAAG [hsa-mir-4432]	-0.0844	-1.26	-0.104	-0.119	-0.0713
UUUGUCAUUUAAAAGUAAUGGCAAA [hsa-mir-548ae-2]	-0.203	0.815	0.00258	0.207	-0.902
GGAGCUCUGUGCCUUUGGGUCCUGGUGAGCUCU [hsa-mir-6070]	0.413	0.246	-0.129	0.271	0.681
GUGUGUUACCUAGAAAUAGCACU [hsa-mir-378a]	-0.282	-1.11	-0.165	-0.283	-0.118
UGGCAAAGACAUAGAUUGUUUAGCUACCCCUUUGCCA [hsa-mir-3119-2]	-0.809	0.167	-0.495	-0.516	-0.58
UGUAUAUAGCAUAUGUGUAUACAUACACACACACACACACACACACACA [hsa-mir-8485]	0.167	-1.14	-0.16	0.396	-0.143
GGGACACAUUUGAGCCAAAUGUCCC [hsa-mir-610]	-0.525	-0.286	-0.331	-0.35	-0.132
UGAGUGAUGACUCAGGCGACUCCA [hsa-mir-338]	0.461	1.31	-0.0635	-0.345	1.51
GGCGGAGGCAGGCGUGACCGUUUGCC [hsa-mir-4632]	1.11	1.09	0.38	0.432	1.56
AGCUGGCUGAAGGGCAGAAGGGAACUGUCCUUCAGCCAGAG [hsa-mir-4487]	-0.243	-0.139	-0.156	-0.276	-0.122
UCCUCUCCUGGUCUGGGAGGAUAGAAGAGAGGA [hsa-mir-5191]	0.823	1.96	-0.219	-0.205	3.13
ACUUUCUGGUGCCAGAAUGAAAGU [hsa-mir-512-2_512-1]	-0.538	-0.15	-0.218	-0.391	0.129
UGCCAUUAAAAGUAAUGGCA [hsa-mir-548i-3_548i-2_548i-1]	0.141	1.22	-0.048	0.489	-0.409

Sequence	pull-down binding Z-score (TO-N3 (biotin conjugate))	pull-down binding Z-score [1]	pull-down binding Z-score [2]	pull-down binding Z-score [3]	pull-down binding Z-score [4]
UGCUUUACUUUUAAUGGCA [hsa-mir-548k]	-1.15	-0.352	-0.358	-0.819	-1.34
UGCUCUGGUGACUGAGGACCGCCAGGCA [hsa-mir-4763]	-0.091	-0.385	-0.197	-0.245	0.367
ACUAGAUUUGAAUCCAGACCUUUAGU [hsa-mir-5584]	0.715	-0.461	0.3	0.878	-0.111
UGUUUAACUCCUCUCCACGUGAACA [hsa-mir-499a]	0.731	-0.0505	-0.0532	0.828	0.116
CGGGGGGGGCCCGGGGACGGCUUGGGCCUGCCUAGUCGG [hsa-mir-1234]	2.73	1.65	1.32	2.08	2.4
CCAUGGGGGCCUUGCUGUGU [hsa-mir-6808]	1.28	1.56	0.335	1.05	1.04
GGGGCUGAGGCUGAGUCUUCCUCCC [hsa-mir-6756]	0.806	0.713	0.101	0.154	1.53
UUGAGGAGAGCACCACAGUGGUCAUCACACAG [hsa-mir-622]	0.871	-1.25	0.109	0.0413	1.19
CCAAGGCUCUGGGGUCUCACCCUUGG [hsa-mir-6842]	0.386	0.754	-0.394	0.484	0.0499
AUUUCCCAAAGUUGGGAAAA [hsa-mir-320b-2]	-0.432	-1.23	-0.231	0.0303	-1.08
CAGGCGGGGCAGCCCAAUGCCAUGGGCCUGAU [hsa-mir-4695]	1.32	2.14	0.157	0.737	1.92
GAAAUGUGUGGAAGAUGGCAUUUC [hsa-mir-4482]	-0.302	2.74	-0.00894	-0.346	0.278
CCAUACAAUAUUUGG [hsa-mir-1302-1]	-0.898	-1.2	-0.406	-0.642	-1.09
UAUAUUCGGUUUAUUGACAUGGAAUAUA [hsa-mir-381]	0.706	2.02	0.106	0.718	-0.284
GGUUUGCGCCUCAAGAAACC [hsa-mir-1255b-2]	-0.0954	0.436	-0.306	-0.187	0.521
CGUUCGCUUUAUUUAUGGCGCACA [hsa-mir-323a]	-0.267	-0.817	-0.271	-0.155	0.118
UUGUUACAUUUUAGGAUUGCUUGCCCCUUGCUCCAAUGGUGCAGGCAGAAGAAAUGCAAACAA [hsa-mir-3973]	0.135	-0.551	-0.0806	-0.0993	1.25
CACUACAAGAAGAAUGUAGUUGUG [hsa-mir-19a]	-0.154	1.3	0.234	-0.108	0.739
UGGUUUGACACAGAGCUAAAUCA [hsa-mir-5007]	0.596	-0.866	0.0372	0.00148	-0.172
GUGUUCACACAUAAUGUGUACACCAUGUGUGUACAC [hsa-mir-5692b]	0.022	-0.31	-0.272	0.192	-0.606
UGCUGUGAGCUAGCCAGCAG [hsa-mir-5693]	0.614	-0.44	0.0593	-0.0213	0.91
GGGCCAGUCUGACCGUUUCUAGGCG [hsa-mir-551a]	1.41	0.753	0.662	0.541	1.75
ACAGCCAGUGCUCUCGUCUCCCCUCUGGCUGC [hsa-mir-192]	0.925	0.589	0.236	0.839	0.949
GUGGAGCCAAAAUUAGAAGGGCCAAAAUUCUACCUGGCCCACUACCACAG [hsa-mir-3978]	-0.00817	-0.932	0.318	-0.3	0.705

— the supplement of paper PMC11865577
